The series concerns the molecule itself. The experiment in a line: SEC; preparative Superdex 200 in 50 mM Tris pH 8.0, 125 mM sodium chloride; elution at approximately 80 kDa against a 44 kDa monomer.

B1: β-ketoacyl-acyl carrier protein synthase FabF from Listeria monocytogenes (enzyme, UniProt A0A0B8RFI6 1-413, looked up)
chain: MDKRRVVVTGIGAVTPIGNDAETSWENAKKGVNGVAKMTRLNPDDFPVKIAAELKDFDVEKYLEKKEARKMDRFTHYAIASAEMAVQDSGLVIDDSNANRVGVWIGSGIGGMETFETQYEIFLNRGHRRVSPFFVPMMIPDMGSGQVSIRFGAKGINSTTVTACATATNSIGDAFKVIERGDADAMITGGAEAPITKMSLAGFTANKALSLNPDPETACRPFDKDRDGFIIGEGAGIVILEEYEHAKARGAKIYAEIVGYGATGDAYHITAPAPNGEGAARAMKMAIDDAGLTPDKVDYINAHGTSTPYNDEYETQAIKTVFGDHAKKLAISSTKSMTGHTLGASGGIEAIFALLTIRDNIIAPTIHLKNQDEVCDLDYVPNEAREANVNVVISNSFGFGGHNATLVFKRIED
notes: FabF (β-ketoacyl-ACP synthase II) of Listeria monocytogenes, amplified from genomic DNA ATCC 19115D-5 with primers from the start to the stop codon; the construct encoded the full length protein; monomer about 44 kDa; Vector pMCSG21 with a TEV site; a few residues of the site may remain at the N-terminus after cleavage (surmise); also called LmFabF; β-ketoacyl-ACP synthase II; source: E. coli …
For the protein B1, the “stoichiometry N” value is 2.

These data come from paper PMC5206705 (Scientific Reports, 2017).
